According to article PMC9482650, “Quantitative fragmentomics allow affinity mapping of interactomes” (Nature Communications, 2022):

T1: GRIP1_4, Q9Y3R0
T1 sequence (Q9Y3R0 467-571, limits assumed, looked up): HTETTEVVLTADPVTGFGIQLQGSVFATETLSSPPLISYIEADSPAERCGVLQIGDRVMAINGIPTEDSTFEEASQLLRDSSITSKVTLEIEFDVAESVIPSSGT

T2: LRRC7, Q96NW7
T2 sequence (Q96NW7 1440-1537, limits assumed, looked up): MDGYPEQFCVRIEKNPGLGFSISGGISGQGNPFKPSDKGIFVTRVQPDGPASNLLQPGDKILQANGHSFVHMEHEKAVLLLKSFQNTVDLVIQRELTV

T3: SIPA1L2, Q9P2F8
T3 sequence (Q9P2F8 945-1036, limits assumed, looked up): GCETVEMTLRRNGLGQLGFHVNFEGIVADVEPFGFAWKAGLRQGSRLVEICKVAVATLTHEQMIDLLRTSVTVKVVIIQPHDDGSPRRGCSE

T4: PARD3B_1, Q8TEW8
T4 sequence (Q8TEW8 196-299, limits assumed, looked up): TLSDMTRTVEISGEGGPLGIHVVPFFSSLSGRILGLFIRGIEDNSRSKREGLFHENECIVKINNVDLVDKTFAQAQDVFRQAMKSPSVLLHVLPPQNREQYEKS

T5: PCLO, Q9Y6V0
T5 sequence (Q9Y6V0 4491-4600, limits assumed, looked up): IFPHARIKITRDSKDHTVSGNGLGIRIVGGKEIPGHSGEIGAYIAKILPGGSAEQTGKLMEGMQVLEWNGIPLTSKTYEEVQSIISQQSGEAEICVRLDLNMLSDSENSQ

T6: LNX2_2, Q8N448
T6 sequence (Q8N448 334-432, limits assumed, looked up): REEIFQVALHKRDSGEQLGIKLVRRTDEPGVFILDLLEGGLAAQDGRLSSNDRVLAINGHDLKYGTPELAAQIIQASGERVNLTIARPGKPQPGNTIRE

T7: MPDZ_10, O75970
T7 sequence (O75970 1624-1722, limits assumed, looked up): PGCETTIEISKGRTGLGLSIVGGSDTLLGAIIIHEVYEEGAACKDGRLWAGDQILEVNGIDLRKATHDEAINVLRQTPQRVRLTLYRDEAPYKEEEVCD

T8: DFNB31_3, Q9P202
T8 sequence (Q9P202 811-907, limits assumed, looked up): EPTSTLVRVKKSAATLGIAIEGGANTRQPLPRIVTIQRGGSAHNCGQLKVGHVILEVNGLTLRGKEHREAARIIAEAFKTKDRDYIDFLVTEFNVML

T9: GRIP1_7, Q9Y3R0
T9 sequence (Q9Y3R0 999-1096, limits assumed, looked up): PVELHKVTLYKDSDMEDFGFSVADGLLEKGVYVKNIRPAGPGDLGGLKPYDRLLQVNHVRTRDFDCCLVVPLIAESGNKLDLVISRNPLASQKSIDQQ

T10: DLG3_1, Q92796
T10 sequence (Q92796 125-227, limits assumed, looked up): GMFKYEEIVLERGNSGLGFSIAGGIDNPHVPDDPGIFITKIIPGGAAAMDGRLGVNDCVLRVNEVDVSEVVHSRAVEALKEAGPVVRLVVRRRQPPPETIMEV

T11: TIAM2, Q8IVF5
T11 sequence (Q8IVF5 885-986, limits assumed, looked up): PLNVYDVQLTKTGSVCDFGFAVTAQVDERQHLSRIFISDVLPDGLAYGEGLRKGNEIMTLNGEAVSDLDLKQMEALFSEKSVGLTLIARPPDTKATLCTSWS


Target: NOS1, P29475
Sequence (P29475 9-101): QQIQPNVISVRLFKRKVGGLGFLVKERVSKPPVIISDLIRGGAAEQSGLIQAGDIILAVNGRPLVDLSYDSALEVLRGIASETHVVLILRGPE
Assay: holdup assay
Design: key: below the threshold = too weak to quantify, mostly under pKd 3.1 to 4
Conditions: plain residues with an end cap or a label only (N-terminal biotin on a linker: ado-ado)

Row | pKd | Binder
1 | below the threshold | DFRHKSSFVI [JAM3, Q9BX67]

Target: T1, GRIP1_4, Q9Y3R0
Assay: holdup assay
Design: key: below the threshold = too weak to quantify, mostly under pKd 3.1 to 4
Conditions: plain residues with an end cap or a label only (N-terminal biotin on a linker: ado-ado)

Row | pKd | Binder
2 | below the threshold | DFRHKSSFVI [JAM3, Q9BX67]

Target: LAP2, Q96RT1
Sequence (Q96RT1 other isoform, or with tags, fused parts or gaps): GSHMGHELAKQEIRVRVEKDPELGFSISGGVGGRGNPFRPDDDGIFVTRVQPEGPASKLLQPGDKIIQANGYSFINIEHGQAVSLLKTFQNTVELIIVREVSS
Assay: holdup assay
Design: key: below the threshold = too weak to quantify, mostly under pKd 3.1 to 4
Conditions: plain residues with an end cap or a label only (N-terminal biotin on a linker: ado-ado)

Row | pKd | Binder
3 | below the threshold | DFRHKSSFVI [JAM3, Q9BX67]

Target: PDLIM1, O00151
Sequence (O00151 1-87): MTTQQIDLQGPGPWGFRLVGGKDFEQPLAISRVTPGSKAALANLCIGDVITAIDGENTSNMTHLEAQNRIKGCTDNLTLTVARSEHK
Assay: holdup assay
Design: key: below the threshold = too weak to quantify, mostly under pKd 3.1 to 4
Conditions: plain residues with an end cap or a label only (N-terminal biotin on a linker: ado-ado)

Row | pKd | Binder
4 | below the threshold | DFRHKSSFVI [JAM3, Q9BX67]

Target: T2, LRRC7, Q96NW7
Assay: holdup assay
Design: key: below the threshold = too weak to quantify, mostly under pKd 3.1 to 4
Conditions: plain residues with an end cap or a label only (N-terminal biotin on a linker: ado-ado)

Row | pKd | Binder
5 | below the threshold | DFRHKSSFVI [JAM3, Q9BX67]

Target: T3, SIPA1L2, Q9P2F8
Assay: holdup assay
Design: key: below the threshold = too weak to quantify, mostly under pKd 3.1 to 4
Conditions: plain residues with an end cap or a label only (N-terminal biotin on a linker: ado-ado)

Row | pKd | Binder
6 | below the threshold | DFRHKSSFVI [JAM3, Q9BX67]

Target: GRID2IP_1, A4D2P6
Sequence (A4D2P6 1-87): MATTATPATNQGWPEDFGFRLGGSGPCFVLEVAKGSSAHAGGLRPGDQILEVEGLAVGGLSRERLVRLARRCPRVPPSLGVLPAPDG
Assay: holdup assay
Design: key: below the threshold = too weak to quantify, mostly under pKd 3.1 to 4
Conditions: plain residues with an end cap or a label only (N-terminal biotin on a linker: ado-ado)

Row | pKd | Binder
7 | below the threshold | DFRHKSSFVI [JAM3, Q9BX67]

Target: MAGI2_3, Q86UL8
Sequence (Q86UL8 600-682): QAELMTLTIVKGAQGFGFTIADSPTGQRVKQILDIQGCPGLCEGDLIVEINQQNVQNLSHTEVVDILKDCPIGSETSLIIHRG
Assay: holdup assay
Design: key: below the threshold = too weak to quantify, mostly under pKd 3.1 to 4
Conditions: plain residues with an end cap or a label only (N-terminal biotin on a linker: ado-ado)

Row | pKd | Binder
8 | below the threshold | DFRHKSSFVI [JAM3, Q9BX67]

Target: T4, PARD3B_1, Q8TEW8
Assay: holdup assay
Design: key: below the threshold = too weak to quantify, mostly under pKd 3.1 to 4
Conditions: plain residues with an end cap or a label only (N-terminal biotin on a linker: ado-ado)

Row | pKd | Binder
9 | 5.03 | DFRHKSSFVI [JAM3, Q9BX67]

Target: DLG2_2, Q15700
Sequence (Q15700 189-283): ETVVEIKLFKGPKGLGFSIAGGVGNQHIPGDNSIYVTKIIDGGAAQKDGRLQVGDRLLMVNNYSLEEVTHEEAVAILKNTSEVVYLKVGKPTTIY
Assay: holdup assay
Design: key: below the threshold = too weak to quantify, mostly under pKd 3.1 to 4
Conditions: plain residues with an end cap or a label only (N-terminal biotin on a linker: ado-ado)

Row | pKd | Binder
10 | below the threshold | DFRHKSSFVI [JAM3, Q9BX67]

Target: NHERF4_2, Q86UT5
Sequence (Q86UT5 220-308): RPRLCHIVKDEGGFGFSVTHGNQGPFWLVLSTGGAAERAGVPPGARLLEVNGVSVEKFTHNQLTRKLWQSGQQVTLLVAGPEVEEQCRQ
Assay: holdup assay
Design: key: below the threshold = too weak to quantify, mostly under pKd 3.1 to 4
Conditions: plain residues with an end cap or a label only (N-terminal biotin on a linker: ado-ado)

Row | pKd | Binder
11 | below the threshold | DFRHKSSFVI [JAM3, Q9BX67]

Target: T5, PCLO, Q9Y6V0
Assay: holdup assay
Design: key: below the threshold = too weak to quantify, mostly under pKd 3.1 to 4
Conditions: plain residues with an end cap or a label only (N-terminal biotin on a linker: ado-ado)

Row | pKd | Binder
12 | below the threshold | DFRHKSSFVI [JAM3, Q9BX67]

Target: SCRIB_3, Q14160
Sequence (Q14160 999-1103): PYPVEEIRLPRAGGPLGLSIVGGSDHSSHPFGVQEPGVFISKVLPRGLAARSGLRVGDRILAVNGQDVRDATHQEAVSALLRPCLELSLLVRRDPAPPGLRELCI
Assay: holdup assay
Design: key: below the threshold = too weak to quantify, mostly under pKd 3.1 to 4
Conditions: plain residues with an end cap or a label only (N-terminal biotin on a linker: ado-ado)

Row | pKd | Binder
13 | below the threshold | DFRHKSSFVI [JAM3, Q9BX67]

Target: AHNAK1, Q09666
Sequence (Q09666 4-100): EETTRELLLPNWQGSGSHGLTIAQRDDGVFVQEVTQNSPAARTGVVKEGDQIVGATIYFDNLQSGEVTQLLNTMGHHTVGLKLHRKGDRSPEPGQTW
Assay: holdup assay
Design: key: below the threshold = too weak to quantify, mostly under pKd 3.1 to 4
Conditions: plain residues with an end cap or a label only (N-terminal biotin on a linker: ado-ado)

Row | pKd | Binder
14 | below the threshold | DFRHKSSFVI [JAM3, Q9BX67]

Target: T6, LNX2_2, Q8N448
Assay: holdup assay
Design: key: below the threshold = too weak to quantify, mostly under pKd 3.1 to 4
Conditions: plain residues with an end cap or a label only (N-terminal biotin on a linker: ado-ado)

Row | pKd | Binder
15 | 4.15 | DFRHKSSFVI [JAM3, Q9BX67]

Target: TJP1_2, Q07157
Sequence (Q07157 181-274): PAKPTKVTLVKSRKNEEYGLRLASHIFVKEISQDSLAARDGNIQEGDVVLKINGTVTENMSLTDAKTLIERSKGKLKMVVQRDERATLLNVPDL
Assay: holdup assay
Design: key: below the threshold = too weak to quantify, mostly under pKd 3.1 to 4
Conditions: plain residues with an end cap or a label only (N-terminal biotin on a linker: ado-ado)

Row | pKd | Binder
16 | below the threshold | DFRHKSSFVI [JAM3, Q9BX67]

Target: T7, MPDZ_10, O75970
Assay: holdup assay
Design: key: below the threshold = too weak to quantify, mostly under pKd 3.1 to 4
Conditions: plain residues with an end cap or a label only (N-terminal biotin on a linker: ado-ado)

Row | pKd | Binder
17 | below the threshold | DFRHKSSFVI [JAM3, Q9BX67]

Target: T8, DFNB31_3, Q9P202
Assay: holdup assay
Design: key: below the threshold = too weak to quantify, mostly under pKd 3.1 to 4
Conditions: plain residues with an end cap or a label only (N-terminal biotin on a linker: ado-ado)

Row | pKd | Binder
18 | 3.86 | DFRHKSSFVI [JAM3, Q9BX67]

Target: T9, GRIP1_7, Q9Y3R0
Assay: holdup assay
Design: key: below the threshold = too weak to quantify, mostly under pKd 3.1 to 4
Conditions: plain residues with an end cap or a label only (N-terminal biotin on a linker: ado-ado)

Row | pKd | Binder
19 | below the threshold | DFRHKSSFVI [JAM3, Q9BX67]

Target: DLG4_2, P78352
Sequence (P78352 155-259): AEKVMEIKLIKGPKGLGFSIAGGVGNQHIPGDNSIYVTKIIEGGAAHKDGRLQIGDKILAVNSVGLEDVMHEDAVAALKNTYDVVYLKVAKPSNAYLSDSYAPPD
Assay: holdup assay
Design: key: below the threshold = too weak to quantify, mostly under pKd 3.1 to 4
Conditions: plain residues with an end cap or a label only (N-terminal biotin on a linker: ado-ado)

Row | pKd | Binder
20 | below the threshold | DFRHKSSFVI [JAM3, Q9BX67]

Target: T10, DLG3_1, Q92796
Assay: holdup assay
Design: key: below the threshold = too weak to quantify, mostly under pKd 3.1 to 4
Conditions: plain residues with an end cap or a label only (N-terminal biotin on a linker: ado-ado)

Row | pKd | Binder
21 | below the threshold | DFRHKSSFVI [JAM3, Q9BX67]

Target: MAGI2_6, Q86UL8
Sequence (Q86UL8 1141-1229): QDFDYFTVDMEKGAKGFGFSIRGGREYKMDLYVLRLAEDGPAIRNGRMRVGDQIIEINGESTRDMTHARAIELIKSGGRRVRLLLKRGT
Assay: holdup assay
Design: key: below the threshold = too weak to quantify, mostly under pKd 3.1 to 4
Conditions: plain residues with an end cap or a label only (N-terminal biotin on a linker: ado-ado)

Row | pKd | Binder
22 | below the threshold | DFRHKSSFVI [JAM3, Q9BX67]

Target: Inadl_1, Q8NI35
Sequence (Q8NI35 113-229): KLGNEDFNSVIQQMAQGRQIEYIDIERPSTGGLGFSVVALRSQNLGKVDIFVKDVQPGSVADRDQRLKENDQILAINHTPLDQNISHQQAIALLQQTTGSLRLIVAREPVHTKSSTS
Assay: holdup assay
Design: key: below the threshold = too weak to quantify, mostly under pKd 3.1 to 4
Conditions: plain residues with an end cap or a label only (N-terminal biotin on a linker: ado-ado)

Row | pKd | Binder
23 | below the threshold | DFRHKSSFVI [JAM3, Q9BX67]

Target: T11, TIAM2, Q8IVF5
Assay: holdup assay
Design: key: below the threshold = too weak to quantify, mostly under pKd 3.1 to 4
Conditions: plain residues with an end cap or a label only (N-terminal biotin on a linker: ado-ado)

Row | pKd | Binder
24 | 4.02 | DFRHKSSFVI [JAM3, Q9BX67]

Target: SCRIB_2, Q14160
Sequence (Q14160 857-960): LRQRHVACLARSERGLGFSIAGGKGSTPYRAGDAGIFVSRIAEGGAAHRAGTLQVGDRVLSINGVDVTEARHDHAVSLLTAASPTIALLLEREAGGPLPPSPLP
Assay: holdup assay
Design: key: below the threshold = too weak to quantify, mostly under pKd 3.1 to 4
Conditions: plain residues with an end cap or a label only (N-terminal biotin on a linker: ado-ado)

Row | pKd | Binder
25 | below the threshold | DFRHKSSFVI [JAM3, Q9BX67]

Target: DLG1_1, Q12959
Assay: holdup assay
Design: key: below the threshold = too weak to quantify, mostly under pKd 3.1 to 4
Conditions: plain residues with an end cap or a label only (N-terminal biotin on a linker: ado-ado)

Row | pKd | Binder
26 | below the threshold | DFRHKSSFVI [JAM3, Q9BX67]

Target: HTRA1, Q92743
Sequence (Q92743 360-477): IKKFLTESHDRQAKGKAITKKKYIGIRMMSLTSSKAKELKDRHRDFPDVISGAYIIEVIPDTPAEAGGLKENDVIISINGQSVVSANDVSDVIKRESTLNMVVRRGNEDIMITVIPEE
Assay: holdup assay
Design: key: below the threshold = too weak to quantify, mostly under pKd 3.1 to 4
Conditions: plain residues with an end cap or a label only (N-terminal biotin on a linker: ado-ado)

Row | pKd | Binder
27 | 4.64 | DFRHKSSFVI [JAM3, Q9BX67]
